Test results taken from PMC9199185, “The Importance of the C-Terminal Cys Pair of Phosphoribulokinase in Phototrophs in Thioredoxin-Dependent Regulation” (Plant and Cell Physiology, 2022).

B1: A.7120_PRK (Nostoc sp. PCC 7120 = FACHB-418) (protein)
chain: MTTKPERVVLIGVAGDSGCGKSTFLRRLIDLFGEEFMTVICLDDYHSLDRKQRKETGITALDPRANNFDLMYEQIKALKEGQTINKPIYNHETGLIDPPEIVKPNHIVVVEGLHPLYDERVRSLLDFSVYFDISDEVKIAWKIQRDMAERGHRYEDVLAAINSRKPDFQKYIEPQREFADVVLQVLPTNLIKDDTERKVLRVRMLQREGKEGFEPAYLFDEGSTINWTPCGRKLTCSYPGMQLYYGSDVYYGRYVSVLEVDGQFDNLEEVIYIETHLSNTSTKYQGELTQLLLQHREYPGSNNGTGFFQVLTGLKMRAAYERLTTKEAKLAVQV
notes: recombinant in E. coli BL21(DE3), pET-21a; no tag stated; Cys pairs Cys19/Cys41 and Cys230/Cys236
B2: AtPRK (Arabidopsis thaliana) (protein)
chain: AQETIVIGLAADSGCGKSTFMRRLTSVFGGAAKPPKGGNPDSNTLISDTTTVICLDDYHSLDRYGRKEQKVTALDPRANDFDLMYEQVKALKNGIAVEKPIYNHVTGLLDPPELIQPPKILVIEGLHPMFDERVRDLLDFSIYLDISNEVKFAWKIQRDMAERGHSLESIKASIEARKPDFDAFIDPQKQYADAVIEVLPTTLIPDDNEGKVLRVRLIMKEGVKYFSPVYLFDEGSTISWIPCGRKLTCSYPGIKFNYEPDSYFDHEVSVLEMDGQFDRLDELIYVESHLSNLSTKFYGEVTQQMLKHADFPGSNNGTGLFQTIVGLKIRDLYEQLIANKATARAEAKA
notes: recombinant in E. coli BL21(DE3), pET-21a; no tag stated; dimer, calculated 79,000

How the values were obtained:
purified protein [1] = substrate: Nc1ncnc2c1ncn2[C@@H]1O[C@H](COP(=O)(O)OP(=O)(O)OP(=O)(O)O)[C@@H](O)[C@H]1O; assay: purified protein; format: biochemical, Nostoc sp. PCC 7120 = FACHB-418; details: reduced form (pretreated with 50 mM DTTred), ATP varied 0-2 mM, 2 mM ribose 5-phosphate plus ribose 5-phosphate isomerase, 10 mM MgCl2, 100 mM KCl, pH 7.5, 30 °C
purified protein [2] = substrate: Nc1ncnc2c1ncn2[C@@H]1O[C@H](COP(=O)(O)OP(=O)(O)OP(=O)(O)O)[C@@H](O)[C@H]1O; assay: purified protein; format: biochemical, Arabidopsis thaliana; details: reduced form (pretreated with 50 mM DTTred), ATP varied 0-2 mM, 2 mM ribose 5-phosphate plus ribose 5-phosphate isomerase, 10 mM MgCl2, 100 mM KCl, pH 7.5, 25 °C

Protein	Km (purified protein [1]) [µM]	Vmax (purified protein [1]) [µmol/min/mg]	Km (purified protein [2]) [µM]	Vmax (purified protein [2]) [µmol/min/mg]
B1	109 ± 4.5	214	–	–
B2	–	–	46.5 ± 6.5	289
